Patent publication US20050208611A1, “Process for identifying compounds with fungicide activity based on UMP/CMP kinases from fungi” (priority 2003, published 2005)

Tests used:
[1] = test system: Nc1ncnc2c1ncn2[C@@H]1O[C@H](COP(=O)(O)OP(=O)(O)OP(=O)(O)O)[C@@H](O)[C@H]1O; test: purified protein, by the assay type; details: other: substrate Km of the recombinant UMP/CMP kinase from U. maydis, Lineweaver-Burk plot (FIG. 4A/4B)
Method: The ADP produced in the reaction is measured by the coupled reaction with pyruvate kinase and lactate dehydrogenase. Here the pyruvate produced in the reaction of the pyruvate kinase is converted to lactate by the lactate dehydrogenase with the use of NADH.
The activity and/or decrease or increase in activity of the inventive polypeptide can therefore occur by coupling this reaction with the enzymatic conversion of the ADP by the pyruvate kinase and the subsequent enzymatic conversion by the lactate dehydrogenase of the pyruvate produced. This makes use of the fact that the pyruvate produced in the reaction of the pyruvate kinase is converted to lactate by the lactate dehydrogenase (LDH) with the consumption of NADH.
The co-substrate NADH consumed in the reaction of the LDH has an extinction maximum at 340 nm.

[2] = test system: O=c1ccn([C@@H]2O[C@H](COP(=O)(O)O)[C@@H](O)[C@H]2O)c(=O)[nH]1; test: purified protein, by the assay type; details: other: substrate Km of the recombinant UMP/CMP kinase from U. maydis, Lineweaver-Burk plot (FIG. 4A/4B)

Substance: UMP/CMP kinase from Ustilago maydis (Mycosarcoma maydis)
- Km [1]: 60 µM
- Km [2]: 120 µM
